The text below walks through data of ChEMBL document CHEMBL2429837, “Identification of cryptotanshinone as an inhibitor of oncogenic protein tyrosine phosphatase SHP2 (PTPN11)” (J Med Chem, 2013).

Holding throughout (conditions): Homo sapiens; 25 uM
Substrate in data set [1]: C[C@H]1COC2=C1C(=O)C(=O)c1c2ccc2c1CCCC2(C)C
Substrate in data set [2]: C[C@H]1COC2=C1C(=O)C(=O)c1c2ccc2c1CCCC2(C)C
The source holds these as a separate data set.

Substrate in data set [3]: C[C@H]1COC2=C1C(=O)C(=O)c1c2ccc2c1CCCC2(C)C
The source holds these as a separate data set.

Substrate in data set [4]: C[C@H]1COC2=C1C(=O)C(=O)c1c2ccc2c1CCCC2(C)C
The source holds these as a separate data set.

B1: Tyrosine-protein phosphatase non-receptor type 11 (Homo sapiens), Q06124 (protein)
chain: MTSRRWFHPNITGVEAENLLLTRGVDGSFLARPSKSNPGDFTLSVRRNGAVTHIKIQNTGDYYDLYGGEKFATLAELVQYYMEHHGQLKEKNGDVIELKYPLNCADPTSERWFHGHLSGKEAEKLLTEKGKHGSFLVRESQSHPGDFVLSVRTGDDKGESNDGKSKVTHVMIRCQELKYDVGGGERFDSLTDLVEHYKKNPMVETLGTVLQLKQPLNTTRINAAEIESRVRELSKLAETTDKVKQGFWEEFETLQQQECKLLYSRKEGQRQENKNKNRYKNILPFDHTRVVLHDGDPNEPVSDYINANIIMPEFETKCNNSKPKKSYIATQGCLQNTVNDFWRMVFQENSRVIVMTTKEVERGKSKCVKYWPDEYALKEYGVMRVRNVKESAAHDYTLRELKLSKVGQGNTERTVWQYHFRTWPDHGVPSDPGGVLDFLEEVHHKQESIMDAGPVVVHCSAGIGRTGTFIVIDILIDIIREKGVDCDIDVPKTIQMVRSQRSGMVQTEAQYRFIYMAVQHYIETLQRRIEEEQKSKRKGHEYTNIKYSLADQTSGDQSPLPPCTPTPPCAEMREDSARVYENVGLMQQQKSFR
Consider B1, for which the maximum rate (Vmax) in data set [1] is 6.96 µM/min. Further, the turnover number (kcat) in data set [2] came out at 0.36 s⁻¹. Moreover, in data set [3], the Km was 170 µM. For the same protein, the kcat/Km in data set [4] stood at 2150 M⁻¹ s⁻¹.
